Test system: TO-N3-2 (biotin conjugate)
Experiment: pull-down binding Z-score (relative to library population); higher = stronger binding
Settings: RNA library: Library-2
Procedure, shortened: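 To score binding, a beads-only signal was subtracted, barcoded replicate probes were averaged with the highest and lowest dropped, and the value was converted to a Z-score using the library mean and standard deviation. The input was 1 μg of Cy5- or Cy3-end-labelled RNA library, heat-folded in phosphate/NaCl/KCl buffer and mixed for 60 min at 25 °C with streptavidin beads carrying 100 pmol of biotin-conjugated small molecule. Bound RNA was eluted in hot SDS and hybridised to a DNA barcode microarray at 55.5 °C for 20 h.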

Row | Sequence | pull-down binding Z-score
1 | GUGGUGAGACACUUGGUGUCCUUGUCCCUCAUGUGGGCGAAAUACCAGUGGCUUACCGC | 0.812
2 | GUGGUUAUACCUACUAAAAAGGCUGGUGGCACUACUGAAAUGCUAGCGAAAGCUUUGAGAAAAGUGCCAACAGACAAUUAUAUAACCAC | 0.179
3 | GUGGUUGACCUACACAGGUGCCAU | 0.102
4 | GUGUAAAAGUGCCUUUUACAU | -0.872
5 | GUGUACCUUCCUUACCCAGAUCCAUCAAGAAUCCUAGGGGCCGGCUGUUUUGUAGAUGAUAUCGUAAAAACAGAUGGUACAC [SHAPE_invivo_SARS-CoV-2_Multi_39_ComplexLevel_1] | 0.318
6 | GUGUAUGCUGCUGACCCUGCUAUGCACGCUGCUUCUGGUAAUCUAUUACUAGAUAAACGCACUACGUGCUUUUCAGUAGCUGCAC | 0.698
7 | GUGUUAUAACAC | -1.12
8 | GUGUUUAUGAUUACUUAGUUUCUACACAGGAGUUUAGAUAUAUGAAUUCACAGGGACUACUCCCACCCAAGAAUAGCAUAGAUGC | -0.079
9 | GUUAAAAAUCUGAAUUCUUCUAGAGUUCCUGAUCUUCUGGUCUAAAC | 0.13
10 | GUUAAAAUAUGAC [SHAPE_invivo_SARS-CoV-2_Motif_271] | -0.892
11 | GUUAAAAUGUUUGAUGCUUACGUUAAUACGUUUUCAUCAACUUUUAAC | -1.35
12 | GUUAACUGGUUAUAAGAAACCUGCUUCAAGAGAGCUUAAAGUUAC | -0.112
13 | GUUAAUGCCUAUAUUAACCUUGACCAGGGCUUUAAC | -0.216
14 | GUUACGACUAUUGUAUACCUUACAAUAGUGUAAC | 0.142
15 | GUUAGUACAACUACUAAC [SHAPE_invivo_SARS-CoV-2_Motif_138] | -0.963
16 | GUUAUAAAUGGAGACAGGUGGUUUCUCAAUCGAUUUACCACAACUCUUAAUGAC | -0.831
17 | GUUAUGUUGAUACACCUAAU [DMSMaPseq_invitro_SARS-CoV-2_Motif_328] | -0.329
18 | GUUCAGAGUUUAUUCUAGUGCGAAUAAUUGCACUUUUGAAUAUGUCUCUCAGC | -0.426
19 | GUUCGGAUGCUCGAACUGCACCUCAUGGUCAUGUUAUGGUUGAGCUGGUAGCAGAACUCGAAGGCAUUCAGUAC [DMSMaPseq_invitro_SARS-CoV-2_Motif_11] | 1.96
20 | GUUCGUGUUGUUUUAGAUUUCAUCUAAACGAAC | -0.397
21 | GUUCUAAGUAUUGCUCCAAUAAUGUUCUCAAACAAAAUGGCGAGACUGGGAAAAGGGUAUAUGUUUGAGAGCAAGAGUAUGAAACUUAGAAC [IAV_invivo_PB1_2_Motif_18+IAV_invivo_PB1_2_Motif_18] | 1.25
22 | GUUCUCAGUACAGAGAAAUCUCCCUUUUGACAGAACAACCAUUAUGGCAGCAUUCAAUGGGAAUACAGAGGGGAGAACAUCUGACAUGAGGAC [IAV_invivo_NP_5_Motif_22+IAV_invivo_NP_5_Motif_22] | 1.23

Row | Sequence | pull-down binding Z-score
23 | GUUCUCUAAACGAAC | -1.16
24 | GUUCUCUAUGAGAAC | -1.47
25 | GUUCUUCUUCGUAAGAAC | -1.19
26 | GUUCUUGAGUGUAAUGUGAAAACUACCGAAGUUGUAGGAGACAUUAUACUUAAACCAGC | 0.162
27 | GUUCUUGUAUGUGAGAAC [IAV_invivo_PA_3_Motif_23+IAV_invivo_PA_3_Motif_23] | -1.09
28 | GUUCUUUGAGAAC [IAV_invivo_PA_3_Motif_25+IAV_invivo_PA_3_Motif_25] | -0.894
29 | GUUGAAGAAGUUACAAC | -0.168
30 | GUUGAAGUUGUUGAUAAGUACUUUGAUUGUUACGAUGGUGGCUGUAUUAAUGCUAACCAAGUCAUCGUCAACAACCUAGACAAAUCAGCUGGUUUUCCAUUUAAU | 0.567
31 | GUUGACAGGACACGAGUAACUCGUCUAUCUUCUGCAGGCUGCUUACGGUUUCGUCCGUGUUGCAGCCGAUCAUCAGC | 1.31
32 | GUUGAUGAGCCUGAAGAACAUGUCCAAAUUCACACAAUCGACGGUUCAUCCGGAGUUGUUAAUCCAGUAAUGGAACCAAUUUAUGAUGAACCGACGACGAC | 0.77
33 | GUUGAUUUUUGUGGAAAGGGCUAUCAUCUUAUGUCCUUCCCUCAGUCAGC [SHAPE_invitro_SARS-CoV-2_Motif_447] | -0.89
34 | GUUGCGUCACCAAAUGAAUGCAAC | -1.2
35 | GUUGCUGUACCUACAGGUUAUGUUGAUACACCUAAUAAUACAGAUUUUUCCAGAGUUAGUGCUAAACCACCGCCUGGAGAUCAAU [SHAPE_invitro_SARS-CoV-2_Multi_51_ComplexLevel_1] | 0.329
36 | GUUGGAUAAUGAUGCACUCAACAACAUUAUCAAC | -0.9
37 | GUUGUAGACGGUUGUAAUUCAUCAACUUGUAUGAUGUGUUACAAACGUAAUAGAGC [SHAPE_invivo_SARS-CoV-2_Motif_153] | -0.564
38 | GUUGUAGACGGUUGUAAUUCAUCAACUUGUAUGAUGUGUUACAAACGUAAUAGAGCAAC | -0.288
39 | GUUGUCGCUUCCAAGAAAAGGACGAAGAUGACAAU [SHAPE_invitro_SARS-CoV-2_Motif_248] | 0.292
40 | GUUGUCUUGAAAACUGGUGAUUUACAACCAUUAGAACAACCUACUAGUGAAGCUGUUGAAGCUCCAUUGGUUGGUACACCAGUUUGUAUUAAC | -0.384
41 | GUUGUCUUUGAUGAAAUUUCAAUGGCCAC [DMSMaPseq_invitro_SARS-CoV-2_Motif_310] | 0.376
42 | GUUGUUACUCACAAUUUUGACUUCACUUUUAGUUUUAGUCCAGAGUACUCAAU | -0.924
43 | GUUUAAGGAAGGUGUAGAGUUUCUUAGAGAC | 0.726
44 | GUUUACAACAGUAGAC | -1.28

Row | Sequence | pull-down binding Z-score
45 | GUUUAUGAAAAACUCAAACCCGUCCUUGAUUGGCUUGAAGAGAAGUUUAAGGAAGGUGUAGAGUUUCUUAGAGAC | -0.0848
46 | GUUUCGGAAGAGAC | -0.706
47 | GUUUCUGCCUUUCCAACAAUUUGGCAGAGAC | -0.994
48 | GUUUGUCUUAGUGGUUUAGAUUCUUUAGACACCUAUCCUUCUUUAGAAACUAUACAAAU | -0.533
49 | GUUUGUGUAUCUACUAGUGGUAGAUGGGUACUUAAC | -1.05
50 | GUUUUAAUUAUGCUUAUUAUCUUUUGGUUCUCACUUGAACUGCAAGAUCAUAAUGAAAC | -1.02
51 | GUUUUCUACAAAGAAAAC | -1.75
52 | GUUUUUCUGUUUGGAACUUUAAUUUUAGCCAUGGCAGAUUCCAACGGUACUAUUACCGUUGAAGAGCUUAAAAAGCUCCUUGAAC | -0.41
53 | GUUUUUGUACACAAUUAAACCGUGCUUUAACUGGAAUAGCUGUUGAACAAGACAAAAAC [DMSMaPseq_invitro_SARS-CoV-2_Motif_424] | -0.336
54 | UAAAAUGAAUUAUCAAGUUA [DMSMaPseq_invitro_SARS-CoV-2_Motif_325] | -1.2
55 | UAAACACGCUUGUUAAACAACUUAGCUCCAAUUUUGGUGCAAUUUCAAGUGUUUUA [SHAPE_invitro_SARS-CoV-2_Motif_443] | -0.333
56 | UAAACCACCCAUUAGUUUUCCAUUGUGUGCUAAUGGACAAGUUUUUGGUUUA [SHAPE_invivo_SARS-CoV-2_Motif_310] | -1.35
57 | UAAAGAACUUUAAGUCAGUUCUUUA | -1.19
58 | UAAAGCCACGUAUAAACCAAAUACCUGGUGUAUACGUUGUCUUUG | -0.691
59 | UAAAGUACUUAAUGAGAAGUGCUCUGCCUAUACAGUUGAACUCGGUACAGAAGUAAAUGAGUUCGCCUGUGUUGUGGCAGAUGCUGUCAUAAAAACUUUG [DMSMaPseq_invitro_SARS-CoV-2_Motif_52] | 0.722
60 | UAAAUAAGGGACACUUUGAUGGACAACAGGGUGAAGUACCAGUUUCUAUCAUUAAUAACACUGUUUACACAAAAGUUGAUGGUGUUGAUGUAGAAUUGUUUG | -0.111
61 | UAAAUUUUUGGCUUUGUGUGCUGACUCUAUCAUUAUUGGUGGAGCUAAACUUAAAGCCUUGAAUUUA | -1.2
62 | UAACACCAGGAACAAAUACUUCUAACCAGGUUGCUGUUCUUUAUCAGGGUGUUA [SHAPE_invivo_SARS-CoV-2_Motif_440] | -1.19
63 | UAACAGUUACACCGGAAGCCAAUAUGGAUCAAGAAUCCUUUGGUGGUGCAUCGUGUUG | -0.452
64 | UAAGGAAGGAAGUUCUGUUGAAUUAAAACACUUCUUCUUUG [SHAPE_invitro_SARS-CoV-2_Motif_269] | -0.905
65 | UAAGGAGAGUGUUCAGACAUUCUUUAAGCUUG [DMSMaPseq_invitro_SARS-CoV-2_Motif_43] | -0.426
66 | UAAUAACGCUACUAAUGUUGUUAUUA | -1.73
